Experimental data published in US20190241657A1 (Sanofi, published 2019).

B1: CODV-Fab-TL1-Knob-RFxhole "hz20G6xhz7G3" antibody-like binding protein (bispecific antibody, human IgG1, kappa, L234A L235A)
light: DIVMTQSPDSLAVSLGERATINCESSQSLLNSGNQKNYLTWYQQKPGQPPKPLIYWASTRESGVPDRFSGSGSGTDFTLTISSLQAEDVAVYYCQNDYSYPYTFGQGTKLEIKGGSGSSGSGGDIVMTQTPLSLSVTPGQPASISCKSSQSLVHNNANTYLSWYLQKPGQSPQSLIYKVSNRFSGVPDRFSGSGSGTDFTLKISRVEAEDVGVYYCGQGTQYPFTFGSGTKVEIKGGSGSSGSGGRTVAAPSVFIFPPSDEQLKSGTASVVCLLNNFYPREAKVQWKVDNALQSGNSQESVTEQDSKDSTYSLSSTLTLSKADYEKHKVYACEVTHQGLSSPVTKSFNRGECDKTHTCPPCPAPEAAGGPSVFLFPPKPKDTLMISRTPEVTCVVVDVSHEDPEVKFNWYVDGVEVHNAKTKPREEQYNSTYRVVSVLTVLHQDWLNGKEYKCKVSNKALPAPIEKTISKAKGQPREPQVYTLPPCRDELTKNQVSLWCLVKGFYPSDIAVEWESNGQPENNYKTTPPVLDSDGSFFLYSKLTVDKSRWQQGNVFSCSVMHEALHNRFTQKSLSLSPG
heavy: QVQLVESGGGVVQPGRSLRLSCAASGFTFTKAWMHWVRQAPGKQLEWVAQIKDKSNSYATYYADSVKGRFTISRDDSKNTLYLQMNSLRAEDTAVYYCRGVYYALSPFDYWGQGTLVTVSSEVQLVQSGAEVKKPGESLKISCKGSGYSFTDYYMKWARQMPGKGLEWMGDIIPSSGATFYNQKFKGQVTISADKSISTTYLQWSSLKASDTAMYYCARSHLLRASWFAYWGQGTMVTVSSASTKGPSVFPLAPSSKSTSGGTAALGCLVKDYFPEPVTVSWNSGALTSGVHTFPAVLQSSGLYSLSSVVTVPSSSLGTQTYICNVNHKPSNTKVDKKVEPKSCDKTHTCPPCPAPEAAGGPSVFLFPPKPKDTLMISRTPEVTCVVVDVSHEDPEVKFNWYVDGVEVHNAKTKPREEQYNSTYRVVSVLTVLHQDWLNGKEYKCKVSNKALPAPIEKTISKAKGQPREPQVCTLPPSRDELTKNQVSLSCAVKGFYPSDIAVEWESNGQPENNYKTTPPVLDSDGSFFLVSKLTVDKSRWQQGNVFSCSVMHEALHNHYTQKSLSLSPG
notes: CODV-Fab-TL format; IgG1 backbone with LALA mutation
B2: CODV-Fab-TL1-RF "hz20G6xhz7G3" antibody-like binding protein (bispecific antibody, human IgG1, kappa, L234A L235A)
light: DIVMTQSPDSLAVSLGERATINCESSQSLLNSGNQKNYLTWYQQKPGQPPKPLIYWASTRESGVPDRFSGSGSGTDFTLTISSLQAEDVAVYYCQNDYSYPYTFGQGTKLEIKGGSGSSGSGGDIVMTQTPLSLSVTPGQPASISCKSSQSLVHNNANTYLSWYLQKPGQSPQSLIYKVSNRFSGVPDRFSGSGSGTDFTLKISRVEAEDVGVYYCGQGTQYPFTFGSGTKVEIKGGSGSSGSGGRTVAAPSVFIFPPSDEQLKSGTASVVCLLNNFYPREAKVQWKVDNALQSGNSQESVTEQDSKDSTYSLSSTLTLSKADYEKHKVYACEVTHQGLSSPVTKSFNRGECDKTHTCPPCPAPEAAGGPSVFLFPPKPKDTLMISRTPEVTCVVVDVSHEDPEVKFNWYVDGVEVHNAKTKPREEQYNSTYRVVSVLTVLHQDWLNGKEYKCKVSNKALPAPIEKTISKAKGQPREPQVYTLPPSRDELTKNQVSLTCLVKGFYPSDIAVEWESNGQPENNYKTTPPVLDSDGSFFLYSKLTVDKSRWQQGNVFSCSVMHEALHNRFTQKSLSLSPG
heavy: not shown
notes: Anti-CD3 (hz20G6) x anti-CD123 (hz7G3) in the CODV-Fab-TL format; IgG1 backbone with LALA mutation; also called hz20G6xhz7G3 CODV-Fab-TL1-RF; PB05126
B3: CODV-Fab-TL1-Knobxhole-RF "hz20G6xhz7G3" antibody-like binding protein (bispecific antibody, human IgG1, kappa, L234A L235A)
light: not shown
heavy: QVQLVESGGGVVQPGRSLRLSCAASGFTFTKAWMHWVRQAPGKQLEWVAQIKDKSNSYATYYADSVKGRFTISRDDSKNTLYLQMNSLRAEDTAVYYCRGVYYALSPFDYWGQGTLVTVSSEVQLVQSGAEVKKPGESLKISCKGSGYSFTDYYMKWARQMPGKGLEWMGDIIPSSGATFYNQKFKGQVTISADKSISTTYLQWSSLKASDTAMYYCARSHLLRASWFAYWGQGTMVTVSSASTKGPSVFPLAPSSKSTSGGTAALGCLVKDYFPEPVTVSWNSGALTSGVHTFPAVLQSSGLYSLSSVVTVPSSSLGTQTYICNVNHKPSNTKVDKKVEPKSCDKTHTCPPCPAPEAAGGPSVFLFPPKPKDTLMISRTPEVTCVVVDVSHEDPEVKFNWYVDGVEVHNAKTKPREEQYNSTYRVVSVLTVLHQDWLNGKEYKCKVSNKALPAPIEKTISKAKGQPREPQVCTLPPSRDELTKNQVSLSCAVKGFYPSDIAVEWESNGQPENNYKTTPPVLDSDGSFFLVSKLTVDKSRWQQGNVFSCSVMHEALHNRFTQKSLSLSPG
notes: as for B1
B4: Single chain antibody DART format MGD006 (CD123xCD3 bi-specific diabody) (bispecific antibody)
chain 1: QAVVTQEPSLTVSPGGTVTLTCRSSTGAVTTSNYANWVQQKPGQAPRGLIGGTNKRAPWTPARFSGSLLGGKAALTITGAQAEDEADYYCALWYSNLWVFGGGTKLTVLGGGGSGGGGEVQLVQSGAELKKPGASVKVSCKASGYTFTDYYMKWVRQAPGQGLEWIGDIIPSNGATFYNQKFKGRVTITVDKSTSTAYMELSSLRSEDTAVYYCARSHLLRASWFAYWGQGTLVTVSSGGCGGGEVAALEKEVAALEKEVAALEKEVAALEK
chain 2: DFVMTQSPDSLAVSLGERVTMSCKSSQSLLNSGNQKNYLTWYQQKPGQPPKLLIYWASTRESGVPDRFSGSGSGTDFTLTISSLQAEDVAVYYCQNDYSYPYTFGQGTKLEIKGGGSGGGGEVQLVESGGGLVQPGGSLRLSCAASGFTFSTYAMNWVRQAPGKGLEWVGRIRSKYNNYATYYADSVKDRFTISRDDSKNSLYLQMNSLKTEDTAVYYCVRHGNFGNSYVSWFAYWGQGTLVTVSSGGCGGGKVAALKEKVAALKEKVAALKEKVAALKE
notes: The two chains are covalently bonded to one another by a disulfide bond; also called single chain DART; CD123xCD3 bispecific DART

What was measured:
[1] = target: T1, CD123 on THP-1 target cells (UniProt P26951 19-378); assay: cell-based or functional assay
T1 sequence (P26951 19-378): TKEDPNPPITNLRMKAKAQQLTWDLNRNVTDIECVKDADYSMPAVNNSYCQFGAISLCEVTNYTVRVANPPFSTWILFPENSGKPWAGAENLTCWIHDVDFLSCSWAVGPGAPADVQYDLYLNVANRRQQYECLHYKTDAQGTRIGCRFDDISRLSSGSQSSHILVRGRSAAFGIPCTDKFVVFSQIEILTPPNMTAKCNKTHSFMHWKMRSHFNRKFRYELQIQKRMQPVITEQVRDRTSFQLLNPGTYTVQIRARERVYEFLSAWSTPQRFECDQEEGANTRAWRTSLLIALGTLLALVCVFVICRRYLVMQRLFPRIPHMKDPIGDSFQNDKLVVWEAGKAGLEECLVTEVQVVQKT

[2] = target: T1, CD123 on THP-1 target cells; assay: cell-based or functional assay; remark: listed apart in the source
[3] = target: T1, CD123 on THP-1 target cells; assay: cell-based or functional assay; remark: listed apart in the source
[4] = target: T2, mature human CD123 His-II tagged Fc-fusion protein (human); assay: SPR (Biacore), CD123-Fc-His captured with His capture kit, CODV as analyte, 1:1 Langmuir with mass transfer
T2 construct: also called huCD123; CD123-Fc-His
T2 sequence (chain, as listed by the source limits assumed): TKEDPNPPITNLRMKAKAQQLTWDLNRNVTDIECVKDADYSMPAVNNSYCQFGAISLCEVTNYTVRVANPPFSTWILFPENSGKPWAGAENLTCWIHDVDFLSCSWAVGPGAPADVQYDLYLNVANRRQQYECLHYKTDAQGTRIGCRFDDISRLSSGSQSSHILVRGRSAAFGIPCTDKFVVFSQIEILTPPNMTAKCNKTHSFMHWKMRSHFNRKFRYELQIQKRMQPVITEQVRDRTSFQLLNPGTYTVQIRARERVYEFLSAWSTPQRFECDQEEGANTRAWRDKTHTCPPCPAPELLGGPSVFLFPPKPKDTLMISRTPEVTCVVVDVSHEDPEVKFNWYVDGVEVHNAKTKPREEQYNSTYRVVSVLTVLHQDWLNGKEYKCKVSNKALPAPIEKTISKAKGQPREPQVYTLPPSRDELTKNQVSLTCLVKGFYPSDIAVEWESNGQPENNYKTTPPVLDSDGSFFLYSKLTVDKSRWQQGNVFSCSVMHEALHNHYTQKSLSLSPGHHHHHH
Method: (§1) Binding affinities of CODV antibody-like binding proteins to human CD3ε/δ and human CD123 were measured by surface plasmon resonance (SPR) using a Biacore3000 or Biacore T200 instrument (GE Healthcare) with HBS-EP (GE Healthcare) as assay buffer). Capture of CD3ε/δ-Fc or CD123-Fc-His fusion proteins was achieved using the His capture kit (GE Healthcare). The capture antibody was coupled to CM5 chips (GE Healthcare) to approx. 12.000 RU using the amine coupling kit (BR-100-50, GE Healthcare). The CD3εδ-Fc or CD123-Fc-His fusion proteins were captured at 10 μl/min to yield Rmax values of 30 RU. Binding kinetics with the CODV antibody-like binding proteins was measured at 30 μl/min Twofold dilutions of CODV antibody-like binding proteins from 3 to 200 nM in assay buffer were used. All Fab concentrations were run in duplicate together with duplicate buffer blanks for double referencing. Regeneration of the capture surface was performed with a 1 min injection of 10 mM Glycine pH1.5 at 30 μl/min. For data analysis the BIAevaluation software (GE Healthcare) was used. Data were fit globally using a 1:1 Langmuir model with mass transfer.

[5] = target: T1, CD123 on THP-1 target cells; assay: cell-based or functional assay; remark: listed apart in the source
[6] = target: T1, CD123 on THP-1 target cells; assay: cell-based or functional assay; remark: listed apart in the source
[7] = target: T2, mature human CD123 His-II tagged …; assay: Biacore
Method: Cytotoxic effects of the CODV-Fab-TL1-RF “hz20G6×hz7G3”, CODV-Fab-OL1 “hz20G6×hz7G3” and the single chain DART MGD006 were assessed. Affinities to the CD3ε/δ-complex and CD123 of each bispecific construct were measured by Biacore. Furthermore, a cytotoxic assay was performed as described in 2.8 (table 3).
as §1, with “Data were fit globally using a 1:1 Langmuir model with mass transfer.” left out

[8] = target: T1, CD123 on THP-1 target cells; assay: cell-based or functional assay; remark: listed apart in the source
[9] = target: T1, CD123 on THP-1 target cells; assay: cell-based or functional assay; remark: listed apart in the source

Binder | T-cell Activation with THP-1 target cells, CD4+/CD69+ EC50 (pM) GMean [1] | T-cell Activation with THP-1 target cells, CD8+/CD69+ EC50 (pM) GMean [1] | Activity - CD8+/CD69+ % Activation C = 100 nM Mean (with THP-1 target cells) [2] | Activity - CD4+/CD69+ % Activation C = 100 nM Mean (with THP-1 target cells) [3] | Kd [4] | koff [4] | kon [4] | flow cytometry based cytotoxic assay, EC50 (pM) GMean [5] | Jurkat-NFAT-Luc reporter cell activation with THP1 cells, EC50 [6] | Kd [7] | T cell activation with THP-1 target cells, CD4+ T cells (% CD69+ cells) EC50 [8] | T cell activation with THP-1 target cells, CD8+ T cells (% CD69+ cells) EC50 [8] | Cytotoxic assay (THP cells) EC50 [9]
B1 | 0.7 pM | 1.2 pM | 68% | 63% | 0.215 nM | 0.000102 s⁻¹ | 474000 M⁻¹ s⁻¹ | 0.8 pM | – | – | – | – | –
B2 | 0.5 pM | 0.7 pM | 78% | 75% | 0.339 nM | 0.000104 s⁻¹ | 308000 M⁻¹ s⁻¹ | 0.8 pM | 0.444 nM | 0.2 nM | 0.0032 nM | 0.0099 nM | 0.001 nM
B3 | 0.9 pM | 1.6 pM | 70% | 64% | 0.193 nM | 8.42e-05 s⁻¹ | 437000 M⁻¹ s⁻¹ | 1.1 pM | – | – | – | – | –
B4 | – | – | – | – | – | – | – | – | 0.37 nM | 0.2 nM | 0.001 nM | 0.0035 nM | 0.0003 nM
